Test results reported in US20080032929A1.

Experiments:
[1] = target: bovine cardiac troponin I purified from ventricular muscle (bovine) (UniProt P08057); assay: ELISA solid phase protein binding: cTnT coated, serial dilutions of bovine cardiac TnI, detected with mAb TnI-1; concentration of TnI required to reach 50% of maximum binding
[2] = target: rabbit α-tropomyosin purified from ventricular muscle (rabbit) (UniProt P58772); assay: ELISA solid phase protein binding: cTnT coated, serial dilutions of rabbit α-tropomyosin, detected with mAb CH1; concentration of tropomyosin for 50% maximum binding
[3] = target: bovine cardiac troponin T (bovine) (UniProt P13789)

## NH2-terminal truncated mouse cardiac troponin T (McTnT-ND72-291), reconstructed and expressed in E. coli (from UniProt P50752)
[1]
  EC50: 8.73 nM
[2]
  EC50: 9.73 nM

## intact mouse cardiac troponin T (TnT4), expressed in E. coli (from UniProt P50752)
[1]
  EC50: 15.3 nM
[2]
  EC50: 13.5 nM

## µ-calpain (Calbiochem) (enzyme)
[3]
  relative amounts of intact and NH2-terminal truncated cTnT, densitometry of mAb CT3 Western blots of µ-calpain treated bovine cardiac myofibrils (% intact cTnT): 1.5
